Test results taken from US20170283834A1, “Processes for Producing A Fermentation Product Using A Fermenting Organism” (Novozymes A/S, priority 2014, published 2017).

Legend:
[1] = Penicillium oxalicum glucoamylase: heat stability; format: biochemical; conditions: for Relative activity (%): Heat stability
Procedure: Substrate: 1% soluble starch (Sigma S-9765) in deionized water
Reaction buffer: 0.1 M Acetate buffer at pH 5.3 Glucose concentration determination kit: Wako glucose assay kit (LabAssay glucose, WAKO, Cat#298-65701).
20 microL soluble starch and 50 microL acetate buffer at pH 5.3 were mixed. 30 microL enzyme solution (50 micro g enzyme protein/ml) was added to a final volume of 100 microL followed by incubation at 37° C. for 15 min.
The glucose concentration was determined by Wako kits.
To assess the heat stability of the Penicillium oxalicum glucoamylase the Reaction condition assay was modifed in that the enzyme solution and acetate buffer was preincubated for 15 min at 20, 30, 40, 50, 60, 70, 75, 80, 85, 90 and 95° C. Following the incubation 20 microL of starch was added to the solution and the assay was performed as described above.

host proteases = assay: Cleavage during cultivation, SDS-PAGE of culture supernatants; parameters: species or system Aspergillus niger
Procedure: Aspergillus transformant of the variant and the wild type Penicillium oxalicum glucoamylase were cultivated in 6-well MT plates containing 4× diluted YP-2% maltose medium supplemented with 10 mM sodium acetate buffer, pH4.5, at 32° C. for 1 week.
The culture supernatants were loaded on SDS-PAGE.

[2] = culture supernatant, 32° C., 1 week

B1: Penicillium oxalicum glucoamylase: wild type Penicillium oxalicum glucoamylase disclosed in SEQ ID NO: 9 (protein, listed as Penicillium oxalicum)
chain: MRLTLLSGVAGVLCAGQLTAARPDPKGGNLTPFIHKEGERSLQGILDNLGGRGKKTPGTAAGLFIASPNTENPNYYYTWTRDSALTAKCLIDLFEDSRAKFPIDRKYLETGIRDYVSSQAILQSVSNPSGTLKDGSGLGEPKFEIDLNPFSGAWGRPQRDGPALRATAMITYANYLISHGQKSDVSQVMWPIIANDLAYVGQYWNNTGFDLWEEVDGSSFFTIAVQHRALVEGSQLAKKLGKSCDACDSQPPQILCFLQSFWNGKYITSNINTQASRSGIDLDSVLGSIHTFDPEAACDDATFQPCSARALANHKVYVDSFRSIYKINAGLAEGSAANVGRYPEDVYQGGNPWYLATLGASELLYDALYQWDRLGKLEVSETSLSFFKDFDATVKIGSYSRNSKTYKKLTQSIKSYADGFIQLVQQYTPSNGSLAEQYDRNTAAPLSANDLTWSFASFLTATQRRDAVVPPSWGAKSANKVPTTCSASPVVGTYKAPTATFSSKTKCVPAKDIVPITFYLIENTYYGENVFMSGNITALGNWDAKKGFPLTANLYTQDQNLWFASVEFIPAGTPFEYKYYKVEPNGDITWEKGPNRVFVAPTGCPVQPHSNDVWQF
[1]; preincubated 15 min at 20° C.
  Relative activity (%): 91.0%
[1]; preincubated 15 min at 30° C.
  Relative activity (%): 92.9%
[1]; preincubated 15 min at 40° C.
  Relative activity (%): 88.1%
[1]; preincubated 15 min at 50° C.
  Relative activity (%): 100.0%
[1]; preincubated 15 min at 60° C.
  Relative activity (%): 96.9%
[1]; preincubated 15 min at 70° C.
  Relative activity (%): 86.0%
[1]; preincubated 15 min at 80° C.
  Relative activity (%): 34.8%
[1]; preincubated 15 min at 85° C.
  Relative activity (%): 36.0%
[1]; preincubated 15 min at 90° C.
  Relative activity (%): 34.2%
[1]; preincubated 15 min at 95° C.
  Relative activity (%): 34.8%
[1]; up to 70° C., preincubation for 15 min
  activity maintained after preincubation: more than 80%
Host proteases
  cleavage by host proteases during fermentation: cleaved by host proteases during fermentation
Host proteases; [2]
  cleaved glucoamylase (ca. 60 kDa): 10%
  intact glucoamylase (ca. 70 kDa): 90%
